From PMC4316792, “The dehydrogenase region of the NADPH oxidase component Nox2 acts as a protein disulfide isomerase (PDI) resembling PDIA3 with a role in the binding of the activator protein p67^phox” (Frontiers in Chemistry, 2015)

B1: p67^phox(1–212) [not stated] / Nox2 peptide 24 (357–371) with an intramolecular disulfide bond between C369 and C371 [modified: biotin on the N-terminus; C-terminal amide; intramolecular disulfide bond between C369 and C371; biotin on the … (parent complex)
chain 1: MSLVEAISLWNEGVLAADKKDWKGALDAFSAVQDPHSRICFNIGCMYTILKNMTEAEKAFTRSINRDKHLAVAYFQRGMLYYQTEKYDLAIKDLKEALIQLRGNQLIDYKILGLQFKLFACEVLYNIAFMYAKKEEWKKAEEQLALATSMKSEPRHSKIDKAMECVWKQKLYEPVVIPVGKLFRPNERQVAQLAKKDYLGKATVVASVVDQD
chain 2: SGSGIVGDWTEGLFNACGC

Variants of: B1
Experiment: peptide-protein binding assay (surface-attached biotinylated peptide, protein in solution, kinetic TMB oxidation read-out); 10 min kinetic experiment; read off a plot

response	Variant
~12 Absorbance (650 nm) x 1000/min	chain 1 C40S, chain 1 C45S, chain 1 C121S, chain 1 C165S
